Results published in the DeepSol protein solubility set.

Test: soluble on expression in E. coli; label from the status in PepcDB or PDB records

| Sequence | soluble on expression in E. coli |
| --- | --- |
| MSLETVLVPVDFTIEKEDLLGCIGEFKNAGLKKVILLHVVDIHKSQGLAPMFERNAKKRIEDYTGFAEELGLETEALVVVGDIKRTISETADRKNVDAIIMGATAKGFIKGRFLGRTTEHIARSSKKILLVEKYDALKEGKEFYKNACRATFSRVLVPLDFSKESMKAIEQLQEFGGIVKEVLLLHVIDNIKDMDLLDEQREEAKGKLGRIKEQLTGIKSQYLVVEGIPSDEIVKFANIEEATMIMLTSRGKGDLIDLILGSTAESVLRKTIKPVLIIPASKEFDGEEGHHHHHH | soluble |
| MCVSSAVCVLSRLSLERFSNFSANFVDNFLLVARFARGETLKNGIVLEISKICPKLYISPVPKLFDCSTDNLLFIYILFASKVRMKEMSTPTGLPALNGDVLSAINDMIGRVIIINTTDKKRYSGVLGAVSQDFDFGMQCVVEITKENENNLLRTESECRDKMVFHYSDIVDFAYVTQEIKKQHAVSKFVTDRQYHGDTPIEGEELQEWNGGEEDGLGGSIEDDVVVAGGQTAARRSNNHNNGTGWSVNDMFAANEKMNVVSTFKEDLTQYTTVEVVGTDEDRARAERLAREIESNSSSKFMANLENDDDERDLDKITRQEDFENGNGRKRNNNSFNQQQQQRRNPNIAPNGQPVNRRAEGLRGDRRNSGSSSANNSRYGAPAAAQQNYSQNQQQQQGQKGYRRQNEENDWQMAKGKGQNQGHDHSFRQQQKQMLDPRPNNNVKPADDKAQSATTATAAAGGSRVTDLKNWGNEFSIATAPKDQAPAVPAGNSGSAWNRGPPSSLVAKGSSNESTPPPTTNGEEAETKKEEAPSTSVDVAAAPVQNVQNDAEKHQEDDNVSVTSENDSVITSKSSSFKFNINAPEFKPRVAPATPTATTPVQNEYHPQQQPHPAMMAPQQGPPAPGMGMVPPHMGGPQNQGQPPMMMWQQTGQQQQGGGGYPQNHQFPIQHVPMQGVPGQMYGPGAATPVTVAQQPNQQHQVPTSAAGGQNHQLRDGEYREKQPLYMPYGPPQMVPVTSQQFYHSQYQGQMQQAAPYQMKMMPQQAPQGAYQQRYQQPQVYMMPPQGQQQQPRYQGPPPPQQQQQQQPQQQQFSGEQSRPQSHPNSQPTTPGPRGELPKMSGAPQNGNMQAESSSNASHSGSTSSQSGQRSGSPPGAVPPPPPPQQQHQQQQHPPHHAPPHVGAPPPQMMQQQQQHIQQYMQVFYPMIMPQQMPMQQNQHPQQSLMGERSDQGFPTSGYFDYRTMPNYQQQQQQQQQQMHRQNSLPQQFQGNQGVNPSGQQSGPPPPPPPSQQGTPRDQQHSQSPP | not soluble |
| MSFWRVFLFGLFLTPPAAACDLALALAVDVSGSVDEGEYRTQMDGLAHALRDPVVSEALVRAEAQLMLVQWTGSDRQRVTIPWTQASSFDALDRFADRVAADPRIWRNYSTAIGEALEVTMAAFAQVPDCARHLIDVSGDGPSNEGIEPLAVHRDLRALGITVNAIAIEQSEPDLTAYFYENVIVGEGAFVETANGFADYPARIRKKLLREVTQQTAALDLEHHHHHH | not soluble |
| MSLNTGINCPFDCGLCARHRSHTNLLNIVLTNRCNLSCWYCFFYAREGEPVYEPTLEQIRMMLRNAKKENPIGANAVQFTGGEPTLRDDLIEIIKIAKEEGYDHVQLNTDGIRLAFEPELVKKIREAGVNTLYLSYDGMTPQTNWKNHWEIPLIFENVRKAGGPGIVLVPTLIRNVNDHEAGAIINFGLNHLDIVRGVNFQPISLVGRVPKKERQRFRITIAGAIKKIEEQTNGAISRDDWYPIPIAGYIARFFEAFTGKHYYMTSHYACGAATYVFLDKEEKKVIPIPRFIDVEGFVEFLVEKAEEIERARFKGLAKLKAIGETVFIKFKQFYDEKYAPKGLDVLGLIKNAFMHGNYDALGQFHTKTLFLGMMHFMDEYNYDVERVERCVIHYAMPDGRIVPFCTFNVIPEIYRDKVQRQFSYSWEEWKKLHPDWDYKKDKYFRTREFVEKMKNSELYRKTYIDIVNYFEEGHHHHHH | soluble |
| MDAAKVRSEFDEKMMRYALELADKAEALGEIPVGAVLVDDARNIIGEGWNLSIVQSDPTAHAEIIALRNGAKNIQNYRLLNSTLYVTLEPCTMCAGAILHSRIKRLVFGASDYKTGAIGSRFHFFDDYKMNHTLEVTSGVLAEECSQKLSTFFQKRREEKKIEKALLKSLSDKLEHHHHHH | not soluble |
| MKFTEGKVKVVANDVKNLTQALEGYIQKAFFEGKDICASGGLVLKTTNKLAQKLSELKEILPQVKVISDEVKAKAEEIIKKAEETLQKGLEIKKRVKEFEAATNVYKKNPSEENKKRVETALNNLKYPEGAKLTLEDYVKNCNPYKKYLQKRVEQKA | not soluble |
| MSLQIKFWPQDLKLAHTWTIASSVTSGSDVTSVGIVQLTDRDGTVGLGEAAPARRYNESTPGSLDFIAKVDATKLSFDNIEASMKYVESLASGQFAAKSAINVALLDGAARKAGKPIYDLLGLGFRNNHHVTSFSIGIDKADVIRKKVLAAEQYPVLKLKVGAADDKANLAALREAAPQKWVRVDANEGWKTKEHALEMIEWLAQDKFIQYIEQPMPADSNPKDIAWLKARSPLPLFGDESYHTAKDVDHCAECYHGVNVKLCKTGGISNAYEALQVARKAGLKTMIGCMIETSILISAAAHLAELCDYLDIDGNLLTTNDPYLGVTAEKGLLSFASAPEKLGLRVRAKEGHHHHHH | soluble |
| MGSHHHHHHDITSLYKKAGSAAAVLEENLYFGGSFTMDMAADIASDHFISRRVDIGRITLNVREKGSGPLMLFFHGITSNSAVFEPLMIRLSDRFTTIAVDQRGHGLSDKPETGYEANDYADDIAGLIRTLARGHAILVGHSLGARNSVTAAAKYPDLVRSVVAIDFTPYIETEALDALEARVNAGSQLFEDIKAVEAYLAGRYPNIPADAIRIRAESGYQPVDGGLRPLASSAAMAQTARGLRSDLVPAYRDVTKPVLIVRGESSKLVSAAALAKTSRLRPDLPVVVVPGADHYVNEVSPEITLKAITNFIDA | soluble |
| MPCRGLHSIPAGPVEFPEIATVYVMCGEKLTVMIDAGVSNSIADFSFLDKLDYIVLTHLHIDHIGLLPELLQVYKAKVLVKSGFKKYLTSEDGLKKLNESAEKVLGDLYYVYGGLEKKLDQDKVIEVEGNEEFDLGGYRMRLIYTPGHARHHMSVLVDDFLFTGDSAGAYFNGVVIPTTPPVIDYKMYMESLKRQIELKPKVVGFAHGGLVSPKIMEEHLKQMLSKEEIQINVDIGGVAGEILRKQIEVNLRGLRESKKSI | soluble |
| MDLWKLYQPGTPAAIVAWGQLGTAHAKTTYGLLRHSRLFKPVCVVAEHEGKMASDFVKPVRYDVPVVSSVEKAKEMGAEVLIIGVSNPGGYLEEQIATLVKKALSLGMDVISGLHFKISQQTEFLKIAHENGTRIIDIRIPPLELDVLRGGIYRKKIKVVGVFGTDCVVGKRTTAVQLWERALEKGIKAGFLATGQTGILIGADAGYVIDAVPADFVSGVVEKAVLKLEKTGKEIVFVEGQGALRHPAYGQVTLGLLYGSNPDVVFLVHDPSRDHFESFPEIPKKPDFEEERRLIETLSNAKVIGGVSLNGGFETDLPVYDPFNTDDLDEMLERAMVW | not soluble |
| MYRNFFSLSELPFSISPDPKYLFMSERHREALTHLTYGLGEVGGFALLTGEVGTGKTTISRCLMEQLPQNTQAAFILNPTLSCQELLATLCDQLKIRYRKTGASLKTLTDKISEKLLKNHENDINTLLIIDEAQHLQPEVLEQLRLLTNLETNTKKLLQVILIGQPELQQLLQRRDLRQL | not soluble |
| QDFAELQGKWYTIVIAADNLEKIEEGGPLRFYFRHIDCYKNCSEMEITFYVITNNQCSKTTVIGYLKGNGTYETQFEGNNIFQPLYITSDKIFFTNKNMDRAGQETNMIVVAGKGNALTPEENEILVQFAHEKKIPVENILNILATDTCPE | soluble |
| MVLLVMKSSTTIITAYFDIGRGDWTANKGFREKLARSVDVYFSYFERLAALENEMIIFTSPDLKPRVEAIRNGKPTTVIVIDIKKKFRYIRSRIEKIQKDESFTNRLEPRQLKNPEYWSPEYVLVCNLKAYFVNKAINMGLVKTPLVAWIDFGYCRKPNVTRGLKIWDFPFDESKMHLFTIKKGLTVTSQQQVFDFMIGNHVYIIGGAIVGSQHKWKEFYKLVLESQKITLNNNIVDDDQGIFVMCYYKRPDLFNLNYLGRGKWFDLFRCFRSNTLGAKMQALRIFLSRK | not soluble |
| MGSDKIHHHHHHMKESGNFEFDDVQGLLRFGYGKLADTCFMLLKIADASAARQWLSTAPVSSAIAIHPPPDTALQIAFSVQGLRALGIDESIIDGFSDEFVHGMTRNENCSRRLGDIGHNAPKYWKWGEGADVPHILLLLYARKGGLDAWKATVEGEYFSQAFQLLQYLPTSDMGRTDPFGFEDGISQPAIDWADRHDTDSHANDRYTNLLAAGEMVLGYPNEYGQYTARPLIDLQKDRFAVNLPDAKDDPARKDFGRNGTYLVLRQLEQNVPGFWQFLDKVSDSIPEKRERLAASMVGRERNGTPLIAEHIPGILPKDHGNHFTYDLDPKGNHCPVSAHVRRANPRTGDLPTAVTGTGAIALINRLVKILGFGQKPEEDLIASSRFHRLLRRGRSYGPVLAPGDAVKPDAPAAERGLQFICLVANIGRQFEFVQNAWIVNGKFGGLQEEPDPLLGNREPMINGNSTDHFNRPTSSGSMQKTCHLPQFTTVLGGGYFFMPGLRALKYISALPANGNGGSS | not soluble |
| MSLRELQNALYFSEVVFGPNLEKIVGEKRLNFWLKLIGEDPENLKEFLSRKGNSFEEQTLPEKEAIVPNRLGEEALEKVREELEFLNTYSTKHVRRVKELGVQIPFEGILLPFISMYIEKFQQQQLRKKIGPIHEEIWTQIVQDITSKLNAILHRTLILELNVARVTSQLKGDTPEERFAYYSKTYLGKREVTHRLYSEYPVVLRLLFTTISHHISFITEILERVANDREAIETEFSPCSPIGTLASLHLNSGDAHHKQRTVTILEFSSSLKLVYKPRSLKVDGVFNGLLAFLNDRTGEVIKDQYCPKVLQRDGYGYVEFVTHQSCQSLEEVSDFYERLGSLMSLSYVLNSSDFHFENIIAHGPYPVLIDLETIIHNTADSSEETSTAMDRAFRMLNDSVLSTGMLPSSIYYRDQPNMKGLNVGGVSKSEGQKTPFKVNQIANRNTDEMRIEKDHVTLSSQKNLPIFQSAAMESVHFLDQIQKGFTSMYQWIEKNKQEFKEQVRKFEGVPVRAVLRSTTRYTELLKSSYHPDLLRSALDREVLLNRLTVDSVMTPYLKEIIPLEVEDLLNGDVPYFYTLPEERALYQEASAINSTFFTTSIFHKIDQKIDKLGIEDHTQQMKILHMSMLASNANHYADVADLEGHHHHHH | soluble |
| MFRIGQGFDVHEFAEGRPLIIGGITIPHEKGLIGHSDADVLLHTIADACLGAIAAGDIGKHFPDTDPAFKDADSAVLLQKVWEFVREQGYELGNLDCTIIAQKPKMAPHIESMRKRISELLETSIDNINVKATTTEKLGFTGREEGIASQAVVLLQKK | not soluble |
| MKCLVTGGNVKVLGKAVHSLSRIGDELYLEPLEDGLSLRTVNSSRSAYACFLFAPLFFQQYQAATPGQDLLRCKILMKSFLSVFRSLAMLEKTVEKCCISLNGRSSRLVVQLHCKFGVRKTHNLSFQDCESLQAVFDPASCPHMLRAPARVLGEAVLPFSPALAEVTLGIGRGRRVILRSYHEEEADSTAKAMVTEMCLGEEDFQQLQAQEGVAITFCLKEFRGLLSFAESANLNLSIHFDAPGRPAIFTIKDSLLDGHFVLATLS | soluble |
| MGSDKIHHHHHHMKKLLFIVNVDWFFISHRLPIAIDALKKGYTVTIACHFTSHKQELIDMGFNVLEIPFSRSGAGILSELNTLKCIRKVINDVNPSLIHAVTIKPVLYTGLVLKSINRNIPFVAAISGLGYVFTASTLRAKLTRFIASAFYKVALSQKYKMVIFQNTSDENILTKVAKLESSDKFLIKGSGADLSVYNFSPENLDNRTSIVMACRLLREKGVYVYVDAAKLVKEHFPEAEFLLVGTPDLENPNTVKQVEIDQWVSDGTIKYLGHRNDIPSIFANSNIVCLPSFYGEGVPKVLIEAAACGRAIVTTDNPGCKDAIINEVTGIAVPVRDAQSLALAIIKLLDDPALRISMGKKGRSFAEQEFDVRAVVTKHLDIYNELLQK | not soluble |
